Reference: US20240190987A1, “Engineered EpCam Binding Antibodies” (TigaTX, priority 2021, published 2024)

T1: huEpCAM ECD Ag0065 (human) (UniProt P16422)
T1 sequence: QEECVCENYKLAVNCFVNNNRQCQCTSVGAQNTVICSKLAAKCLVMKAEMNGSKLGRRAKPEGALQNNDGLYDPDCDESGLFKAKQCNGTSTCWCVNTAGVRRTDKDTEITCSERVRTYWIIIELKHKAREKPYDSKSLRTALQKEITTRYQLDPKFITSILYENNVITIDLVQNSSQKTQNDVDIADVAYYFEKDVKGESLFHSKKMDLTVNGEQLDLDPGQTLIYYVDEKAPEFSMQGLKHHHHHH


What was measured:
[1] = target: cyEpCAM ECD Ag0066 (cyno); experiment: SPR single-cycle
[2] = target: cyEpCAM ECD Ag0066 (cyno); experiment: SPR multi-cycle
[3] = target: T1, huEpCAM ECD Ag0065 (human); experiment: SPR multi-cycle
[4] = target: T1, huEpCAM ECD Ag0065 (human); experiment: SPR single-cycle
Ab0223 = experiment: BLI 1-pt +indinavir
Ab0223, sequence (VH, as listed by the source limits assumed, form in doubt, chain 1 of 2): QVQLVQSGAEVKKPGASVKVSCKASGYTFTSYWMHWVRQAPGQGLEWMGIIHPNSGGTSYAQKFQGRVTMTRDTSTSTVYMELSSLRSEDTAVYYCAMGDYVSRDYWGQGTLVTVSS
Ab0223, sequence (VL, as listed by the source limits assumed, form in doubt, chain 2 of 2): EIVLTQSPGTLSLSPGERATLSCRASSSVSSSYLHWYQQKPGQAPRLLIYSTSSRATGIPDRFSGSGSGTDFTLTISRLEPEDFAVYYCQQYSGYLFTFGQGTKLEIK

Binder | Kd [1] | Kd [4] | Kd (Ab0223) | further results
Ab1011 (antibody, V domains shown) VH: EVQLVESGGGLVQPGGSLRLSCAASGFTFSNYWMNWVRQAPGKGLEWVAQIRVKSENFATHYADSVKGRFTISRDDSKSTVYLQMNSLRAEDTAVYYCTRYDGFSWGQGTLVTVSS VL: DIQMTQSPSSLSASVGDRVTITCSASSSVSSGNFHWYQQKPGKAPKLLIYRTSNLASGVPSRFSGSGSGTDYTLTISSLQPEDFATYYCQQWSGYPYTFGQGTKVEIKR | 9.9 nM |  |  | 
Ab1066 (antibody, V domains shown) VH: EVQLVESGGGLVQPGGSLRLSCAASGFTFSNYWMNWVRQAPGKGLEWVAQIRVKSENFATHYADSVKGRFTISRDDSKSTVYLQMNSLRAEDTAVYYCTLYDAFSWGQGTLVTVSS VL: DIQMTQSPSSLSASVGDRVTITCSASSSVSSGNFHWYQQKPGKAPKLLIYRTSNLASGVPSRFSGSGSGTDYTLTISSLQPEDFATYYCQQASGYPYTFGQGTKVEIK |  |  |  | Kd [2]: 3 nM; Kd [3]: 5.7 nM
Ab1018 (antibody, V domains shown) VH: EVQLVESGGGLVQPGGSLRLSCAASGFTFSNYWMNWVRQAPGKGLEWVAQIRVKSENFATHYADSVKGRFTISRDDSKSTVYLQMNSLRAEDTAVYYCTLYEGFSWGQGTLVTVSS VL: DIQMTQSPSSLSASVGDRVTITCSASSSVSSGNFHWYQQKPGKAPKLLIYRTSNLASGVPSRFSGSGSGTDYTLTISSLQPEDFATYYCQQWSGYPYTFGQGTKVEIK | 2.1 nM | 3 nM |  | Kd [2]: 1.6 nM; Kd [3]: 2.8 nM
Ab1017 (antibody, V domains shown) VH: EVQLVESGGGLVQPGGSLRLSCAASGFTFSNYWMSWVRQAPGKGLEWVAQIRVKSENFATHYADSVKGRFTISRDDSKSTVYLQMNSLRAEDTAVYYCTLYDGFSWGQGTLVTVSS VL: DIQMTQSPSSLSASVGDRVTITCSASSSVSSGNFHWYQQKPGKAPKLLIYRTSNLASGVPSRFSGSGSGTDYTLTISSLQPEDFATYYCQQWSGYPYTFGQGTKVEIK | 4.5 nM | 7.6 nM |  | 
Ab0948 (antibody, V domains shown) VH: EVQLVESGGGLVQPGGSLRLSCAASGFDFSSYSIHWVRQAPGKGLEWVASISPYYGSTYYADSVKGRFTISADTSKNTAYLQMNSLRAEDTAVYYCARYYEWYKYDLYLGSLGFDAWGQGTLVTVSS VL: DIQMTQSPSSLSASVGDRVTITCRASQSVSSAVAWYQQKPGKAPKLLIYSASSLYSGVPSRFSGSRSGTDFTLTISSLQPEDFATYYCQQGGYSLITFGQGTKVEIK |  |  | 7.3 nM | 
Ab0936 (antibody, V domains shown) VH: EVQLVESGGGLVQPGGSLRLSCAASGFDFSSYSIHWVRQAPGKGLEWVAAISPYYGSTYYADSVKGRFTISADTSKNTAYLQMNSLRAEDTAVYYCARYYEWYKYDLYLGSLGFDYWGQGTLVTVSS VL: DIQMTQSPSSLSASVGDRVTITCRASQSVSSAVAWYQQKPGKAPKLLIYSASSLYSGVPSRFSGSRSGTDFTLTISSLQPEDFATYYCQQGGYSLITFGQGTKVEIK |  |  | < 1 nM | 
Ab0944 (antibody, V domains shown) VH: EVQLVESGGGLVQPGGSLRLSCAASGFDFSSYSIHWVRQAPGKGLEWVASISPYYGSTYYADSVKGRFTISADTSKNTAYLQMNSLRAEDTAVYYCARYYEWYKYALYLGSLGFDYWGQGTLVTVSS VL: DIQMTQSPSSLSASVGDRVTITCRASQSVSSAVAWYQQKPGKAPKLLIYSASSLYSGVPSRFSGSRSGTDFTLTISSLQPEDFATYYCQQGGYSLITFGQGTKVEIK |  |  | 7.1 nM | 
Ab0946 (antibody, V domains shown) VH: EVQLVESGGGLVQPGGSLRLSCAASGFDFSSYSIHWVRQAPGKGLEWVASISPYYGSTYYADSVKGRFTISADTSKNTAYLQMNSLRAEDTAVYYCARYYEWYKYDLYLGSLAFDYWGQGTLVTVSS VL: DIQMTQSPSSLSASVGDRVTITCRASQSVSSAVAWYQQKPGKAPKLLIYSASSLYSGVPSRFSGSRSGTDFTLTISSLQPEDFATYYCQQGGYSLITFGQGTKVEIK |  |  | 50 nM | 
Ab0943 (antibody, V domains shown) VH: EVQLVESGGGLVQPGGSLRLSCAASGFDFSSYSIHWVRQAPGKGLEWVASISPYYGSTYYADSVKGRFTISADTSKNTAYLQMNSLRAEDTAVYYCARYYEWYAYDLYLGSLGFDYWGQGTLVTVSS VL: DIQMTQSPSSLSASVGDRVTITCRASQSVSSAVAWYQQKPGKAPKLLIYSASSLYSGVPSRFSGSRSGTDFTLTISSLQPEDFATYYCQQGGYSLITFGQGTKVEIK |  |  | 130 nM | 
Ab0947 (antibody, V domains shown) VH: EVQLVESGGGLVQPGGSLRLSCAASGFDFSSYSIHWVRQAPGKGLEWVASISPYYGSTYYADSVKGRFTISADTSKNTAYLQMNSLRAEDTAVYYCARYYEWYKYDLYLGSLGFAYWGQGTLVTVSS VL: DIQMTQSPSSLSASVGDRVTITCRASQSVSSAVAWYQQKPGKAPKLLIYSASSLYSGVPSRFSGSRSGTDFTLTISSLQPEDFATYYCQQGGYSLITFGQGTKVEIK |  |  | 52 nM | 
Ab0941 (antibody, V domains shown) VH: EVQLVESGGGLVQPGGSLRLSCAASGFDFSSYSIHWVRQAPGKGLEWVASISPYYGATYYADSVKGRFTISADTSKNTAYLQMNSLRAEDTAVYYCARYYEWYKYDLYLGSLGFDYWGQGTLVTVSS VL: DIQMTQSPSSLSASVGDRVTITCRASQSVSSAVAWYQQKPGKAPKLLIYSASSLYSGVPSRFSGSRSGTDFTLTISSLQPEDFATYYCQQGGYSLITFGQGTKVEIK |  |  | 3.7 nM | 

Continued, in another order:

Kd [1] | Kd [4] | Kd (Ab0223) | Binder | further results
2.3 nM | 3.1 nM |  | Ab1021 (antibody, V domains shown) VH: EVQLVESGGGLVQPGGSLRLSCAASGFTFSNYWMNWVRQSPGKGLEWVAQIRVKSENFATHYADSVKGRFTISRDDSKSTVYLQMNSLRAEDTAVYYCTLYDGFSWGQGTLVTVSS VL: DIQMTQSPSSLSASVGDRVTITCSASSSVSSGNFHWYQQKPGKAPKLLIYRTSNLASGVPSRFSGSGSGTDYTLTISSLQPEDFATYYCQQWSGYPYTFGQGTKVEIK | 
0.9 nM | 2 nM |  | Ab1023 (antibody, V domains shown) VH: EVQLVESGGGLVQPGGSLRLSCAASGFTFSNYWMNWVRQAPGKGLEWVAQIRVKYENFATHYADSVKGRFTISRDDSKSTVYLQMNSLRAEDTAVYYCTLYDGFSWGQGTLVTVSS VL: DIQMTQSPSSLSASVGDRVTITCSASSSVSSGNFHWYQQKPGKAPKLLIYRTSNLASGVPSRFSGSGSGTDYTLTISSLQPEDFATYYCQQWSGYPYTFGQGTKVEIK | 
6.2 nM | 9.7 nM |  | Ab1012 (antibody, V domains shown) VH: EVQLVESGGGLVQPGGSLRLSCAASGFTFSSYWMNWVRQAPGKGLEWVAQIRVKSENFATHYADSVKGRFTISRDDSKSTVYLQMNSLRAEDTAVYYCTLYDGFSWGQGTLVTVSS VL: DIQMTQSPSSLSASVGDRVTITCSASSSVSSGNFHWYQQKPGKAPKLLIYRTSNLASGVPSRFSGSGSGTDYTLTISSLQPEDFATYYCQQWSGYPYTFGQGTKVEIK | 
7.7 nM | 7.2 nM |  | Ab1016 (antibody, V domains shown) VH: EVQLVESGGGLVQPGGSLRLSCAASGFTFSNYYMNWVRQAPGKGLEWVAQIRVKSENFATHYADSVKGRFTISRDDSKSTVYLQMNSLRAEDTAVYYCTLYDGFSWGQGTLVTVSS VL: DIQMTQSPSSLSASVGDRVTITCSASSSVSSGNFHWYQQKPGKAPKLLIYRTSNLASGVPSRFSGSGSGTDYTLTISSLQPEDFATYYCQQWSGYPYTFGQGTKVEIK | 
 |  | 230 nM | Ab0935 (antibody, V domains shown) VH: EVQLVESGGGLVQPGGSLRLSCAASGFDFSSASIHWVRQAPGKGLEWVASISPYYGSTYYADSVKGRFTISADTSKNTAYLQMNSLRAEDTAVYYCARYYEWYKYDLYLGSLGFDYWGQGTLVTVSS VL: DIQMTQSPSSLSASVGDRVTITCRASQSVSSAVAWYQQKPGKAPKLLIYSASSLYSGVPSRFSGSRSGTDFTLTISSLQPEDFATYYCQQGGYSLITFGQGTKVEIK | 
 |  | 10 nM | Ab0940 (antibody, V domains shown) VH: EVQLVESGGGLVQPGGSLRLSCAASGFDFSSYSIHWVRQAPGKGLEWVASISPYYASTYYADSVKGRFTISADTSKNTAYLQMNSLRAEDTAVYYCARYYEWYKYDLYLGSLGFDYWGQGTLVTVSS VL: DIQMTQSPSSLSASVGDRVTITCRASQSVSSAVAWYQQKPGKAPKLLIYSASSLYSGVPSRFSGSRSGTDFTLTISSLQPEDFATYYCQQGGYSLITFGQGTKVEIK | 
 |  | 210 nM | Ab0942 (antibody, V domains shown) VH: EVQLVESGGGLVQPGGSLRLSCAASGFDFSSYSIHWVRQAPGKGLEWVASISPYYGSTYYADSVKGRFTISADTSKNTAYLQMNSLRAEDTAVYYCARYYAWYKYDLYLGSLGFDYWGQGTLVTVSS VL: DIQMTQSPSSLSASVGDRVTITCRASQSVSSAVAWYQQKPGKAPKLLIYSASSLYSGVPSRFSGSRSGTDFTLTISSLQPEDFATYYCQQGGYSLITFGQGTKVEIK | 
 |  | 3.7 nM | Ab0939 (antibody, V domains shown) VH: EVQLVESGGGLVQPGGSLRLSCAASGFDFSSYSIHWVRQAPGKGLEWVASISAYYGSTYYADSVKGRFTISADTSKNTAYLQMNSLRAEDTAVYYCARYYEWYKYDLYLGSLGFDYWGQGTLVTVSS VL: DIQMTQSPSSLSASVGDRVTITCRASQSVSSAVAWYQQKPGKAPKLLIYSASSLYSGVPSRFSGSRSGTDFTLTISSLQPEDFATYYCQQGGYSLITFGQGTKVEIK | 
 |  | 310 nM | Ab0938 (antibody, V domains shown) VH: EVQLVESGGGLVQPGGSLRLSCAASGFDFSSYSIHWVRQAPGKGLEWVASIAPYYGSTYYADSVKGRFTISADTSKNTAYLQMNSLRAEDTAVYYCARYYEWYKYDLYLGSLGFDYWGQGTLVTVSS VL: DIQMTQSPSSLSASVGDRVTITCRASQSVSSAVAWYQQKPGKAPKLLIYSASSLYSGVPSRFSGSRSGTDFTLTISSLQPEDFATYYCQQGGYSLITFGQGTKVEIK | 
